Laboratory results reported in US20210130471A1 (DRAGONFLY THERAPEUTICS, published 2021).

T1: human NKG2D expressed on EL4 cells (Example 8) (human, UniProt P26718 1-216)
T1 construct: whole, on cells; also called extracellular NKG2D expressed on EL4 cells
T1 sequence (looked up): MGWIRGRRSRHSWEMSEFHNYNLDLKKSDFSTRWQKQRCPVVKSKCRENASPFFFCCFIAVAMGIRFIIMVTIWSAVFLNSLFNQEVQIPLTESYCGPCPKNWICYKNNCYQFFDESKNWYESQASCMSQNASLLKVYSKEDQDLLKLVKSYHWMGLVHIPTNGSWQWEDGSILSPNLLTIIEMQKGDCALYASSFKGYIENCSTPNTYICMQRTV


Assays:
[1] = target: T1, human NKG2D expressed on EL4 cells …; test: flow cytometry on EL4 cells expressing human NKG2D
Protocol: EL4 mouse lymphoma cell lines were engineered to express human NKG2D. […] The binding of the multi-specific binding proteins to NKG2D was detected using fluorophore-conjugated anti-human IgG secondary antibodies. Cells were analyzed by flow cytometry, and fold-over-background (FOB) was calculated using the mean fluorescence intensity (MFI) of NKG2D-expressing cells compared to parental EL4 cells.

[2] = target: T2, CD33 expressed on human AML cells (MV4-11, Molm-13) (human, UniProt P20138 18-364); test: flow cytometry on Molm-13 and MV4-11 human AML cells
T2 construct: In the assay the endogenous CD33 of the human AML cell lines was the target; also called cell surface CD33; tumor associated antigen CD33
T2 sequence (P20138 18-364 limits assumed): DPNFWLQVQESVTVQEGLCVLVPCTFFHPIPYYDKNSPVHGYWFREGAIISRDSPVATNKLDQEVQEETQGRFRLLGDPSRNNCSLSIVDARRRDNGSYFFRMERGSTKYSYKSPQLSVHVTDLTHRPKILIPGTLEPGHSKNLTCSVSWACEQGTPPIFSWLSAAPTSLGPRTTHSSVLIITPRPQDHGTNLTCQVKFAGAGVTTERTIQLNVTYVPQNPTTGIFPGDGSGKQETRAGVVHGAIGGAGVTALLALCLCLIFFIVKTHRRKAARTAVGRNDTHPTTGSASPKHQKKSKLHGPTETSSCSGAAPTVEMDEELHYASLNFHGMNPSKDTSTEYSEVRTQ
Protocol: Human AML cell line MV4-11 and Molm-13 expressing CD33 were used to assay the binding of TriNKETs to the tumor associated antigen CD33. TriNKETs and optionally the parental anti-CD33 monoclonal antibody were incubated with the cells, and the binding was detected using fluorophore-conjugated anti-human IgG secondary antibodies. Cells were analyzed by flow cytometry, and fold-over-background (FOB) was calculated using the mean fluorescence intensity (MFI) from the TriNKETs and the parental monoclonal anti-CD33 antibody normalized to secondary antibody controls. […] The TriNKETs show binding to cell surface CD33 on MV4-11 (FIGS. 36A, 36B, and 36D) and Molm-13 cells (FIG. 36C).

Row | binding result [1] | binding result [2] | Binder
1 | binds |  | CD33-TriNKET-C26 (ADI-28226 and a CD33-binding domain) (bispecific antibody, V domains shown) VH 1: QVQLQQWGAGLLKPSETLSLTCAVYGGSFSGYYWSWIRQPPGKGLEWIGEIDHSGSTNYNPSLKSRVTISVDTSKNQFSLKLSSVTAADTAVYYCARARGPWSFDPWGQGTLVTVSS VL 1: DIQMTQSPSTLSASVGDRVTITCRASQSISSWLAWYQQKPGKAPKLLIYKASSLESGVPSRFSGSGSGTEFTLTISSLQPDDFATYYCQQYGSFPITFGGGTKVEIK VH 2: QVQLVQSGAEVKKPGASVKVSCKASGYTFTDYVVHWVRQAPGQGLEWMGYINPYNDGTKYNEKFKGRVTMTRDTSISTAYMELSRLRSDDTAVYYCARDYRYEVYGMDYWGQGTLVTVSS VL 2: DIVLTQSPASLAVSPGQRATITCTASSSVNYIHWYQQKPGQPPKLLIYDTSKVASGVPARFSGSGSGTDFTLTINPVEANDTANYYCQQWRSYPLTFGQGTKLEIK
2 | binds |  | CD33-TriNKET-A44 (ADI-27744 and a CD33-binding domain) (bispecific antibody, V domains shown) VH 1: not shown VL 1: DIQMTQSPSSVSASVGDRVTITCRASQGIDSWLAWYQQKPGKAPKLLIYAASSLQSGVPSRFSGSGSGTDFTLTISSLQPEDFATYYCQQGVSYPRTFGGGTKVEIK VH 2: QVQLVQSGAEVKKPGASVKVSCKASGYTFTDYVVHWVRQAPGQGLEWMGYINPYNDGTKYNEKFKGRVTMTRDTSISTAYMELSRLRSDDTAVYYCARDYRYEVYGMDYWGQGTLVTVSS VL 2: DIVLTQSPASLAVSPGQRATITCTASSSVNYIHWYQQKPGQPPKLLIYDTSKVASGVPARFSGSGSGTDFTLTINPVEANDTANYYCQQWRSYPLTFGQGTKLEIK

The next lines start with the binder.

Row | Binder | binding result [1] | binding result [2]
3 | parental anti-CD33 monoclonal antibody (antibody, V domains shown, Detected with anti-human IgG; also called parental monoclonal anti-CD33 antibody; parental anti-CD33 antibody) VH: QVQLVQSGAEVKKPGASVKVSCKASGYTFTDYVVHWVRQAPGQGLEWMGYINPYNDGTKYNEKFKGRVTMTRDTSISTAYMELSRLRSDDTAVYYCARDYRYEVYGMDYWGQGTLVTVSS VL: DIVLTQSPASLAVSPGQRATITCTASSSVNYIHWYQQKPGQPPKLLIYDTSKVASGVPARFSGSGSGTDFTLTINPVEANDTANYYCQQWRSYPLTFGQGTKLEIK |  | binds
4 | CD33-TriNKET-A49 (ADI-27749 and a CD33-binding domain) (bispecific antibody, V domains shown) VH 1: EVQLVESGGGLVKPGGSLRLSCAASGFTFSSYSMNWVRQAPGKGLEWVSSISSSSSYIYYADSVKGRFTISRDNAKNSLYLQMNSLRAEDTAVYYCARGAPMGAAAGWFDPWGQGTLVTVSS VL 1: DIQMTQSPSSVSASVGDRVTITCRASQGISSWLAWYQQKPGKAPKLLIYAASSLQSGVPSRFSGSGSGTDFTLTISSLQPEDFATYYCQQGVSFPRTFGGGTKVEIK VH 2: QVQLVQSGAEVKKPGASVKVSCKASGYTFTDYVVHWVRQAPGQGLEWMGYINPYNDGTKYNEKFKGRVTMTRDTSISTAYMELSRLRSDDTAVYYCARDYRYEVYGMDYWGQGTLVTVSS VL 2: DIVLTQSPASLAVSPGQRATITCTASSSVNYIHWYQQKPGQPPKLLIYDTSKVASGVPARFSGSGSGTDFTLTINPVEANDTANYYCQQWRSYPLTFGQGTKLEIK | binds | 
5 | CD33-TriNKET-F47 (ADI-29447 and a CD33-binding domain) (bispecific antibody, V domains shown) VH 1: QVQLQQWGAGLLKPSETLSLTCAVYGGSFSGYYWSWIRQPPGKGLEWIGEIDHSGSTNYNPSLKSRVTISVDTSKNQFSLKLSSVTAADTAVYYCARARGPWSFDPWGQGTLVTVSS VL 1: DIQMTQSPSTLSASVGDRVTITCRASQSISSWLAWYQQKPGKAPKLLIYKASSLESGVPSRFSGSGSGTEFTLTISSLQPDDFATYYCQQYDTFITFGGGTKVEIK VH 2: QVQLVQSGAEVKKPGASVKVSCKASGYTFTDYVVHWVRQAPGQGLEWMGYINPYNDGTKYNEKFKGRVTMTRDTSISTAYMELSRLRSDDTAVYYCARDYRYEVYGMDYWGQGTLVTVSS VL 2: DIVLTQSPASLAVSPGQRATITCTASSSVNYIHWYQQKPGQPPKLLIYDTSKVASGVPARFSGSGSGTDFTLTINPVEANDTANYYCQQWRSYPLTFGQGTKLEIK | binds | 
